Test results from publication PMC5244374.

Target: homotarsinin (Htr), cystine-linked homodimer (Phyllomedusa tarsius)
Assay: SEC; 2 mg/mL peptide, Superdex Peptide 10/300 GL, 20 mM phosphate pH 7.0, 0.3 M NaCl, room temperature, 0.3 mL/min; homotarsinin and distinctin compared by retention time

homotarsinin (Htr), cystine-linked homodimer (peptide)
stoichiometry N: 2
